Results as given in patent US20240101674A1 (OTTIMO PHARMA, published 2024).

T1: rhesus VEGFR2 protein (rhesus monkey)
T1 construct: Recombinant protein used in ELISA; also called rhesus monkey VEGFR2; rh VEGFR2
T1 chain: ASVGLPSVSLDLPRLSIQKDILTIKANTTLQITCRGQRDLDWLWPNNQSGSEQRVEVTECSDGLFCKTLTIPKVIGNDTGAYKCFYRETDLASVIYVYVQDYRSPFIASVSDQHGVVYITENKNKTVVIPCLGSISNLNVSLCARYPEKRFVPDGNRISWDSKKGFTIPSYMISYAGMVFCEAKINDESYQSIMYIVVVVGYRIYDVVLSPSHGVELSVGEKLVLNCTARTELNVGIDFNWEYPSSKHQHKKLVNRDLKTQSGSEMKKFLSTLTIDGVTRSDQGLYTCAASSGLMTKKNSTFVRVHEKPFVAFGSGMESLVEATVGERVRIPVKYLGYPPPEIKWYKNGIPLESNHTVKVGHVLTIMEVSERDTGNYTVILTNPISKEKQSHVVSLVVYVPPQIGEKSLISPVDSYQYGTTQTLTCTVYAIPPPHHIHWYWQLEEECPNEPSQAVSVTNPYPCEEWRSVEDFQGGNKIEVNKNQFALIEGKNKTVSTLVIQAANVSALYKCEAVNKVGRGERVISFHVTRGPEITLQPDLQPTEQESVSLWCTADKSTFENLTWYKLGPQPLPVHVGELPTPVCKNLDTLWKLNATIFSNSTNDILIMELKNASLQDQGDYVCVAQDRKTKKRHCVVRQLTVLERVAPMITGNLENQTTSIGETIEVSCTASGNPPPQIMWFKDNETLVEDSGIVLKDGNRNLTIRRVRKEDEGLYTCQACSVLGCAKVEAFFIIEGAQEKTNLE

T2: cynomolgus monkey PD1 human Fc tagged recombinant protein (cynomolgus monkey, UniProt Q15116 25-170 (human entry), limits assumed)
T2 construct: also called cyno PD1-Fc; cyno PD1; not shown: human Fc tag
T2 chain: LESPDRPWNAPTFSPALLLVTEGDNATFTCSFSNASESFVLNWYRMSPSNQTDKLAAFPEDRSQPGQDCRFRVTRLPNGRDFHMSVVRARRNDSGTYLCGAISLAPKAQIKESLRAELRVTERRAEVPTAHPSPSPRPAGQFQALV


How the values were obtained:
[1] = target: T3, biotinylated human PD1-His/AviTag (human, UniProt Q15116 25-170, limits assumed, biotinylated); assay: Alphascreen epitope competition, Fab periprep; competitor hMAb005 IgG1 null on biotinylated human PD1-His/AviTag
T3 construct: also called human PD1 protein (Alphascreen); not shown: His/AviTag
T3 sequence (Q15116 25-170 limits assumed): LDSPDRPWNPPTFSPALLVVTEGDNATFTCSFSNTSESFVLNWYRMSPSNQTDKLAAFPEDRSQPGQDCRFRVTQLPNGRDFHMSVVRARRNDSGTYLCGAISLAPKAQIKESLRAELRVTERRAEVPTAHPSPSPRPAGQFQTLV
Experimental: FIG. 2A-FIG. 2B. Epitope competition analysis of Fab proteins in Alphascreen Anti-PD1 clones were expressed as Fab in E. coli and peripreps were applied in an epitope competition assay using Alphascreen technology.
The AlphaScreen assay (Perkin Elmer) was performed in a 25 μl final volume in 384-well white microtiter plates (Greiner). The reaction buffer contained 1×PBS pH 7.3 (Oxoid, Cat. nr. BR0014G) and 0.05% (v/v) Tween® 20 (Sigma, Cat. nr. P9416). Periprep samples diluted in reaction buffer were incubated with biotinylated human PD1-His/AviTag at 0.6 nM final concentration for 20 minutes at room temperature. […] The emission of light was measured in the EnVision multilabel plate reader (Perkin Elmer) and analysed using the EnVision manager software. Values were reported as Counts Per Second (CPS) and corrected for crosstalk. Signal reduction percentages were calculated relative to the irrelevant sample.

rhesus VEGFR2 protein [2] = target: T1, rhesus VEGFR2 protein; assay: periprep Fab direct binding ELISA (FIG. 1)
[3] = target: T2, cynomolgus monkey PD1 human Fc tagged …; assay: periprep Fab direct binding ELISA (FIG. 1)
human VEGFR2 protein [4] = target: T4, human VEGFR2 protein (human, UniProt P35968 20-764); assay: periprep Fab direct binding ELISA (FIG. 1)
T4 construct: Recombinant protein used in ELISA; also called hu VEGFR2; KDR

[5] = target: T5, human PD1 human Fc tagged recombinant protein (human, UniProt Q15116 25-170); assay: direct titration ELISA, IgG1 null on coated PD1-Fc (FIG. 3A)
T5 construct: also called human PD1-Fc; hu PD1; not shown: human Fc tag
T5 sequence (Q15116 25-170 limits assumed): as above
Experimental: (§1) Binding and cross-reactivity of the lead panel to the recombinant proteins was initially assessed by binding ELISA. The human PD1 human Fc tagged recombinant protein and the cynomolgus monkey PD1 human Fc tagged recombinant protein were coated to the surface of MaxiSorp™ flat-bottom 96 well plate at 1 μg/ml. The purified Fab or IgG samples were titrated in two fold serial dilutions starting from 500 nM to 0.98 nM and allowed to bind to the coated antigens. The Fabs were detected using mouse anti-c-myc antibody followed by donkey anti-mouse IgG conjugated to horseradish peroxidase. The IgGs were detected using the mouse anti-human IgG conjugated to horseradish peroxidase. Binding signals were visualized with 3,3′,5,5′-Tetramethylbenzidine Substrate Solution (TMB) and the absorbance measured at 450 nm.

[6] = target: T2, cynomolgus monkey PD1 human Fc tagged …; assay: as above
Experimental: as §1

rhesus VEGFR2 protein [7] = target: T1, rhesus VEGFR2 protein; assay: direct titration ELISA, IgG1 null on VEGFR2 protein (FIG. 3B)
human VEGFR2 protein [8] = target: T4, human VEGFR2 protein; assay: as above

Row | Binder | percentage signal reduction of hMAb005/PD1 interaction [1] [%] | binding result (rhesus VEGFR2 protein [2]) | binding result [3] | binding result (human VEGFR2 protein [4]) | binding result [5] | binding result [6] | binding result (rhesus VEGFR2 protein [7]) | binding result (human VEGFR2 protein [8])
1 | MAB02D08 Fab (Fab, V domains shown, Library-derived clone screened as human IgG1-kappa Fab in E. coli periplasmic extract; also called MAB02D08 (periprep Fab)) VH: EVQLVESGGGLVQPGGSLRLSCAASGFTFSSYMMSWVRQAPGKGLEWVATISGGGANTYYPDSVKGRFTISRDNAKNSLYLQMNSLRAEDTAVYYCARQLYYFDYWGQGTTVTVSS VL: DIQMTQSPSSLSASVGDRVTITCLASQESGIWLSWYQQKPGKAPKLLIYTATSLADGVPSRFSGSGSGTDFTLTISSLQPEDFATYYCQQVYSIPWTFGGGTKVEIK | > 75 | binds | binds | binds |  |  |  | 
2 | MAB06 IgG1 null (antibody, V domains shown, Human IgG1 null format (L234A, L235A, G237A) with human C kappa; only variable domains are tied to the clone) VH: EVQLVESGGGLVQPGGSLRLSCAASGFTFSSYMMSWVRQAPGKGLEWVATISGGGANTYYPDSVKGRFTISRDNAKNSLYLQMNSLRAEDTAVYYCARQLYYFDYWGQGTTVTVSS VL: DIQMTQSPSSLSASVGDRVTITCLASQESGIWLSWYQQKPGKAPKLLIYTATSLADGVPSRFSGSGSGTDFTLTISSLQPEDFATYYCQQVSVTPFTFGGGTKVEIK |  |  |  |  | binds | binds | binds | binds
3 | MAB04 IgG1 null (antibody, V domains shown, Human IgG1 null format (L234A, L235A, G237A) with human C kappa; only variable domains are tied to the clone) VH: EVQLVESGGGLVQPGGSLRLSCAASGFTFSSYMMSWVRQAPGKGLEWVATISGGGANTYYPDSVKGRFTISRDNAKNSLYLQMNSLRAEDTAVYYCARQLYYFDYWGQGTTVTVSS VL: DIQMTQSPSSLSASVGDRVTITCLASQGIGPWLSWYQQKPGKAPKLLIYTATSLADGVPSRFSGSGSGTDFTLTISSLQPEDFATYYCQQVSVTPFTFGGGTKVEIK |  |  |  |  | binds | binds | binds | binds
4 | hMAb005 IgG1 null (antibody, V domains shown, Tested as human IgG1 null (L234A, L235A, G237A) with human C kappa; also called humanized MAb005) VH: EVQLVESGGGLVQPGGSLRLSCAASGFTFSSYMMSWVRQAPGKGLEWVATISGGGANTYYPDSVKGRFTISRDNAKNSLYLQMNSLRAEDTAVYYCARQLYYFDYWGQGTTVTVSS VL: DIQMTQSPSSLSASVGDRVTITCLASQTIGTWLTWYQQKPGKAPKLLIYTATSLADGVPSRFSGSGSGTDFTLTISSLQPEDFATYYCQQVYSIPWTFGGGTKVEIK |  |  |  |  | binds | binds |  | 
5 | MAB05 IgG1 null (antibody, V domains shown, Human IgG1 null format (L234A, L235A, G237A) with human C kappa; only variable domains are tied to the clone) VH: EVQLVESGGGLVQPGGSLRLSCAASGFTFSSYMMSWVRQAPGKGLEWVATISGGGANTYYPDSVKGRFTISRDNAKNSLYLQMNSLRAEDTAVYYCARQLYYFDYWGQGTTVTVSS VL: DIQMTQSPSSLSASVGDRVTITCLASQPLGIWLSWYQQKPGKAPKLLIYTATSLADGVPSRFSGSGSGTDFTLTISSLQPEDFATYYCQQVSVTPFTFGGGTKVEIK |  |  |  |  | binds | binds | binds | binds
6 | MAB01 IgG1 null (antibody, V domains shown, Human IgG1 null format (L234A, L235A, G237A) with human C kappa; only variable domains are tied to the clone) VH: EVQLVESGGGLVQPGGSLRLSCAASGFTFSSYMMSWVRQAPGKGLEWVATISGGGANTYYPDSVKGRFTISRDNAKNSLYLQMNSLRAEDTAVYYCARQLYYFDYWGQGTTVTVSS VL: DIQMTQSPSSLSASVGDRVTITCLASQGIGPWLSWYQQKPGKAPKLLIYTATSLADGVPSRFSGSGSGTDFTLTISSLQPEDFATYYCQQVAELPFGFGGGTKVEIK |  |  |  |  | binds | binds | binds | binds
7 | MAB05E08 IgG1 null (antibody, V domains shown, Human IgG1 null format (L234A, L235A, G237A) with human C kappa; only variable domains are tied to the clone) VH: EVQLVESGGGLVQPGGSLRLSCAASGFTFSSYMMSWVRQAPGKGLEWVATISGGGANTYYPDSVKGRFTISRDNAKNSLYLQMNSLRAEDTAVYYCARQLYYFDYWGQGTTVTVSS VL: DIQMTQSPSSLSASVGDRVTITCLASQTIGTWLTWYQQKPGKAPKLLIYTATSLADGVPSRFSGSGSGTDFTLTISSLQPEDFATYYCQQVSVTPFTFGGGTKVEIK |  |  |  |  |  | binds | binds | binds
8 | MAB05G03 IgG1 null (antibody, V domains shown, Human IgG1 null format (L234A, L235A, G237A) with human C kappa; only variable domains are tied to the clone) VH: EVQLVESGGGLVQPGGSLRLSCAASGFTFSSYMMSWVRQAPGKGLEWVATISGGGANTYYPDSVKGRFTISRDNAKNSLYLQMNSLRAEDTAVYYCARQLYYFDYWGQGTTVTVSS VL: DIQMTQSPSSLSASVGDRVTITCLASQTIGTWLTWYQQKPGKAPKLLIYTATSLADGVPSRFSGSGSGTDFTLTISSLQPEDFATYYCQQVAELPFGFGGGTKVEIK |  |  |  |  |  | binds | binds | binds
9 | MAB02D08 IgG1 null (antibody, V domains shown, Human IgG1 null format (L234A, L235A, G237A) with human C kappa; only variable domains are tied to the clone) VH: EVQLVESGGGLVQPGGSLRLSCAASGFTFSSYMMSWVRQAPGKGLEWVATISGGGANTYYPDSVKGRFTISRDNAKNSLYLQMNSLRAEDTAVYYCARQLYYFDYWGQGTTVTVSS VL: DIQMTQSPSSLSASVGDRVTITCLASQESGIWLSWYQQKPGKAPKLLIYTATSLADGVPSRFSGSGSGTDFTLTISSLQPEDFATYYCQQVYSIPWTFGGGTKVEIK |  |  |  |  |  | binds | binds | binds
10 | MAB02A03 IgG1 null (antibody, V domains shown, Human IgG1 null format (L234A, L235A, G237A) with human C kappa; only variable domains are tied to the clone) VH: EVQLVESGGGLVQPGGSLRLSCAASGFTFSSYMMSWVRQAPGKGLEWVATISGGGANTYYPDSVKGRFTISRDNAKNSLYLQMNSLRAEDTAVYYCARQLYYFDYWGQGTTVTVSS VL: DIQMTQSSSSLSASVGDRVTITCLASQGIGPWLSWYQQKPGKAPKLLIYTATSLADGVPSRFSGSGSGTDFTLTISSLQPEDFATYYCQQVYSIPWTFGGGTKVEIK |  |  |  |  |  | binds | binds | binds
11 | MAB02B03 IgG1 null (antibody, V domains shown, Human IgG1 null format (L234A, L235A, G237A) with human C kappa; only variable domains are tied to the clone) VH: EVQLVESGGGLVQPGGSLRLSCAASGFTFSSYMMSWVRQAPGKGLEWVATISGGGANTYYPDSVKGRFTISRDNAKNSLYLQMNSLRAEDTAVYYCARQLYYFDYWGQGTTVTVSS VL: DIQMTQSPSSLSASVGDRVTITCLASQPLGIWLSWYQQKPGKAPKLLIYTATSLADGVPSRFSGSGSGTDFTLTISSLQPEDFATYYCQQVYSIPWTFGGGTKVEIK |  |  |  |  |  | binds | binds | binds
12 | MAB02 IgG1 null (antibody, V domains shown, Human IgG1 null format (L234A, L235A, G237A) with human C kappa; only variable domains are tied to the clone) VH: EVQLVESGGGLVQPGGSLRLSCAASGFTFSSYMMSWVRQAPGKGLEWVATISGGGANTYYPDSVKGRFTISRDNAKNSLYLQMNSLRAEDTAVYYCARQLYYFDYWGQGTTVTVSS VL: DIQMTQSPSSLSASVGDRVTITCLASQPLGIWLSWYQQKPGKAPKLLIYTATSLADGVPSRFSGSGSGTDFTLTISSLQPEDFATYYCQQVAELPFGFGGGTKVEIK |  |  |  |  | binds | binds |  | 
